The values that follow come from publication PMC4227968.

The series addresses T1, CzrA (Bacillus subtilis, UniProt O31844 1-107).
T1 sequence: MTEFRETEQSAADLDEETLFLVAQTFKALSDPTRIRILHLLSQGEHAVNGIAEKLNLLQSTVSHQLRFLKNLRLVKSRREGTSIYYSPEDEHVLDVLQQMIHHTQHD
The experiment in a line: fluorescence anisotropy.

B1: cadA promoter operator 28 bp (dsDNA)
DNA 1: TTATATATGAGTATATGCTCATATATAT
DNA 2: ATATATATGAGCATATACTCATATATAA
For B1, the binding result is on record as “binds”.
